Experimental findings from patent US20220356210A1, “A SERIES OF INJECTABLE HYDROGELS SELF-ASSEMBLED FROM SHORT PEPTIDES FOR VARIOUS BIOMEDICAL APPLICATIONS” (Agency for Science, Technology and Research, priority 2019, published 2022) are described below.

No end group written: not given here.

The test system of data set [1] is human primary keratinocytes. The data set can be described thus: In vitro cytotoxicity, MTT assay. The data set is classed as cell-based. As to conditions: 24 h. The protocol:
(§1) 1000 μL of HDFs or keratinocytes (10^5 cells per mL) were seeded onto the 12-well Transwell plates (Corning). IIK12 (1%) with various contents of antimicrobial peptides were dissolved in water and incubated at 37° C. overnight and 100 μL of gels were then transferred to the inserts of the Transwell plate. 1 mL of fresh medium was added into the inserts. The plates were incubated for 24 h before proceeding to MTT assay. It is noted that cells without any treatment and Mupirocin (GSK) were used as controls. The data were expressed as mean and standard deviation of three replicates and the tests were repeated 3 times.
A general note: Tetrazolium assays rely on reduction of a dye to a coloured formazan, in cell work by metabolically active cells.

Data set [2] concerns human dermal fibroblasts (HDFs). Put plainly: In vitro cytotoxicity, MTT assay. The data set is classed as cell-based. The following applies: 2000 μg/mL, 24 h. The protocol:
as §1

Data set [3] relates to S. aureus. Put plainly: Disk diffusion assay. The following applies: hydrogel cast on inoculated agar, one day at 37° C. The data set is classed as cell-based. Here is the method: Antimicrobial activity was further tested through a disk diffusion assay. Briefly, microbial suspension (S. aureus, ATCC No. 6538) with 3.5×10^6 CFU/mL (40 μL) was spread on 1.5% LB agar plates. Disks (Sigma) were prepared to contain 50 μL of peptides with various concentrations by dripping 50 μL of peptides solutions onto a sterile disk. Disks were air-dried for several minutes before being placed onto different zones in the agar plates. Hydrogels (100 μL) were placed onto LB agar plates. The plates were incubated for 24 h at 37° C.
For orientation: Agar diffusion results depend on both activity and mobility in agar.

Data set [4] in a line: Gelation by vial tilting method. The data set is classed as physicochemical. Here is the method: The peptide powder was dissolved in water or other aqueous solutions at the required concentrations. Alternatively, the required salt may be added after the peptide aqueous solution is prepared. The hydrogel was formed by mixing the peptide aqueous solution and salt (if required). For example, the solution was vortexed and then incubated to form hydrogel. The hydrogel formed may be stored as formed, or may be dried, for example by freeze drying. Alternatively, the hydrogel may be formed as required. The gelation time was determined by the vial tilting method. […] Rheology experiments were performed at room temperature using a control-strain rheometer (ARES G2, TA instruments). The rheometer is equipped with two sensitive force transducers for torque ranging from 0.05 μN·m to 200 mN·m. The peptide powder was dissolved in water at concentrations ranging from 1.0 to 2.0 (w/v) %. The solution was vortexed and then incubated to form hydrogel. The gel was placed onto parallel-plate geometry (8 mm in diameter). The dynamic storage modulus (G′) and loss modulus (G″) were examined as a function of frequency from 1 to 100 rad/s. The measurements were carried out at a strain amplitude (y) to ensure the linearity of viscoelasticity. Flow sweep (viscosity changes as a function of shear rate) was also performed to study shear thinning properties of hydrogels.

Data set [5] deals with S. aureus. Put plainly: Killing kinetics test. The format is cell-based. As to conditions: 24 h of incubation. Here is the method:
The microbes were treated with peptide hydrogels as described above. At various time periods of treatment, the microbial samples were diluted for plating (LB Agar, 1st Base). Incubation conditions: 18 h, 37° C. for bacteria. The colony-forming units were counted after the incubation period. The experiment was repeated in independent settings three times.

Data set [6] has as its system S. aureus. The data set can be described thus: Antimicrobial activity of peptide hydrogels (OD and agar plating). The data set is classed as cell-based. As to conditions: control gel, IIK12 at 1%, no antimicrobial peptide. Here is the method: (§2) Hydrogels for the antimicrobial assays were prepared in 96-well tissue culture plates (NUNC). Briefly, IIK12 (1%) with various contents of antimicrobial peptides was dissolved in water and vortexed. 50 μL of solution was transferred to the wells. Gelation occurred overnight at 37° C. The growth of microorganisms on hydrogels was measured using a broth dilution method. Briefly, 30 μL of microorganism suspension (3.5×10^5 CFU/mL) was introduced onto the hydrogels, and a 96-well plate and peptide hydrogel without antimicrobial peptides were used as controls. The optical density readings of bacterial solutions were monitored by measuring OD600 nm. The assay was performed in four replicates for each sample and the experiments were repeated at least three times. Antimicrobial activity was further tested through a spread plate method. Briefly, hydrogels were challenged with microorganism solution, at the end of treatment, microbial suspension on the hydrogel surface was withdrawn and diluted sequentially, and then plated on 1.5% LB agar plates. The plates were incubated for 24 h at 37° C. (48 h at room temperature for C. albicans). Microbial colonies were formed and counted. The experiments were performed in triplicate and were repeated three times.

Another data set concerns C. albicans. Described as above. The following applies: control gel, IIK12 at 1%, no antimicrobial peptide. The format is cell-based. Here is the method:
as §2

Another data set deals with E. coli. The data set is described as above. The format is cell-based. As to conditions: control gel, IIK12 at 1%, no antimicrobial peptide. Here is the method: as §2
A short description of data set [7]: Rheology, G′ and G″ at frequency of 1 Hz. The format is physicochemical. The following applies: incubated at 37° C. overnight. Here is the method: The gelation time was determined by the vial tilting method. […] Rheology experiments were performed at room temperature using a control-strain rheometer (ARES G2, TA instruments). The rheometer is equipped with two sensitive force transducers for torque ranging from 0.05 μN·m to 200 mN·m. […] The solution was vortexed and then incubated to form hydrogel. The gel was placed onto parallel-plate geometry (8 mm in diameter). The dynamic storage modulus (G′) and loss modulus (G″) were examined as a function of frequency from 1 to 100 rad/s. The measurements were carried out at a strain amplitude (y) to ensure the linearity of viscoelasticity. Flow sweep (viscosity changes as a function of shear rate) was also performed to study shear thinning properties of hydrogels.

A short description of data set [8]: Dynamic step strain amplitude test. The data set is classed as physicochemical. The following applies: 2.0 (w/v) % in water. The text has this: The reduction of viscosity was attributed to the disruption of physical cross-links between the peptide molecules upon the application of shear stress. In order for a peptide gel construct containing a drug and/or cell/s to be delivered by syringe, it is essential that the disrupted gel with low viscosity could rapidly recover back into a stiff gel when the shear stress terminates. The ability of the peptide hydrogels to recover was investigated using a dynamic step strain amplitude test, where strain of 0.5% and 100% were periodically applied on the peptide hydrogels. […] After subjected 30 s of continuous high strain, the strain was reduced to 0.5%. […] This reversibility of peptide hydrogel in the presence of DMEM was further evaluated under the same conditions. […] The G′ value is reduced remarkably by ˜2000 times to ˜1 Pa when subjected a high stain of 100%. […] A similar phenomenon was also observed for IIK12 hydrogel, where the storage moduli of IIK12 hydrogel increased with increasing peptide concentrations (Table 5). […] This rheological behavior of the peptide hydrogels offers a great advantage for use as an injectable matrix for delivery of therapeutics such as drugs and cells. The fast recovery kinetics can be explained by the fact that the physical cross-links of the gel network immediately recovered after the high strain terminated.

As for `C/C(=C\C(=O)OCCCCCCCCC(=O)O)C[C@@H]1OC[C@H](C[C@@H]2O[C@H]2[C@@H](C)[C@H](C)O)[C@@H](O)[C@H]1O` [Mupirocin, reference compound], the Cell viability is 80-90% in data set [1] and “more than 80%” in data set [2].

Consider IRIKIEIEIRIK (IRIKIEIEIRIK-NH2) [IIK12], for which the “S. aureus colony formation on agar in contact with gel” value in the data set with S. aureus [3] is reported as “ineffective”. Also, in data set [4] (aqueous solution), the “Lowest concentration at which hydrogels self-assembled” value was 0.6 (w/v) %. Further, the “Gelation in DI water at 37° C. (via tilting)” value in [4] (peptide conc. 0.6, 1.0 %) is “Gel”. For the same molecule, the “Log (CFU)” value in the data set on S. aureus [5] was 9.28. For the same molecule, the “Killing of the microbes (OD measurement and agar plating)” value with S. aureus [6], in the data set with C. albicans and in the data set on E. coli was “ineffective” each time. The “G′ (storage modulus)” value in data set [7] (0.6 wt %, H2O) was 65 Pa; in data set [7] (0.8 wt %, H2O), 131 Pa; in [7] (1.0 wt %, DMEM), 1206 Pa; in [7] (1.0 wt %, H2O), 279 Pa; in data set [7] (1.5 wt %, H2O), 598 Pa; in [7] (2.0 wt %, H2O) it was 865 Pa. Also, the “G″ (loss modulus)” value in data set [7] (0.6 wt %, H2O) came to 7 Pa; in [7] (0.8 wt %, H2O), 24 Pa; in data set [7] (1.0 wt %, DMEM), 176 Pa; in data set [7] (1.0 wt %, H2O), 48 Pa; in [7] (1.5 wt %, H2O), 66 Pa; in data set [7] (2.0 wt %, H2O), 69 Pa. Further, in [8], the “Rheological behavior in dynamic step strain amplitude measurement” value is recorded as “reversible rheological behavior”.
